Assay results published in patent US9295724B2, “Stable formulations for parenteral injection of peptide drugs” (Xeris Pharmaceuticals, Inc., priority 2011, dated 2016).

How the values were obtained:
[1] = Freezing point depression of DMSO solutions by DSC; type: physicochemical; conditions: cooled to −40° C. and heated to 40° C. at 8° C. per minute
Experimental: Using PerkinElmer Instruments PYRIS Diamond Differential Scanning Calorimetry (“DSC”), samples were cooled to −40° C. and heated to 40° C. at 8° C. per minute for screening purposes.

[2] = Effect of pH on insulin solubility in DMSO; type: physicochemical
Experimental: These solutions were lyophilized to dryness ([…]) using a conservative cycle and reconstituted to various nominal concentrations in DMSO. Solubility was measured by visual inspection for clarity and turbidity via A630.

temperature of crystallization (Tc) by DSC [1]	Compound	solubility in DMSO ([2]; lyophilized at pH 2)	time to slowly dissolve to a clear solution ([2]; pH memory of 7, lower concentration e.g. 10 mg/mL, DMSO)	solubility in DMSO ([2]; pH memory of 7, lowest concentration tested 10 mg/mL)
18 °C	C[S+](C)[O-] [neat DMSO, dimethylsulfoxide]	–	–	–
–	insulin	at least 100 mg/mL	about 24 hours	poor solubility
